Measurements published in the RNAGym collection of RNA variant scans (doi:10.1073/pnas.2313332121).

B1: TPR t1 (parent)
chain: GACCAAUCUGCCCUCAGAGCUCGAGAACAUCUUCGGAUGCAGAGGAGGCAGGCUUCGGUGGCGCGAUAGCGCCAACGUCCUCAACCUCCAAUGCAUCCCACCACAUGAUGAUGCCUGAAGAGCCUUGGUUUUUUG

Variants of: B1
Experiment: polymerase ribozyme fitness, log enrichment relative to wild type (log ratio); higher = more active; in vitro selection for triplet polymerase activity
Procedure, shortened: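 A single round of triplicate in vitro selection, including frozen incubation at −7 °C, was applied to PCR-built, transcribed mutant libraries of each subunit of a heterodimeric triplet polymerase ribozyme. Illumina sequencing of input and output libraries retained genotypes with ≥10 input reads and ≥1 read per output. Fitness is the base-2 logarithm of genotype enrichment divided by wild-type enrichment, from inverse-variance-weighted replicate averages.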

Row | Variant | polymerase ribozyme fitness (log ratio)
1 | G48U C73U | -1.06
2 | C49A A75U C85G | -1.4
3 | G48U A50G G61A C89U | -1.81
4 | C49A A74G | -0.173
5 | C49A G117A | -1.89
6 | G48C C85A | -2.11
7 | G48C G135U | -1.05
8 | C49G C53G G69C C72U | -1.21
9 | C49A G63U C94U A118G | -1.43
10 | G48C C97G | -4.14
11 | C49A C56A U131C U133A | -0.929
12 | C49A C124A | 1.63
13 | C49G G57A U109A | -6.29
14 | G48U C89U C124G G128A | -0.497
15 | G48C G63A G113U C123A | -5.64
16 | C49G G69A A119U U133A | -3.06
17 | C49A A50G G52U A118U | 0.379
18 | G48C G71U | -2.47
19 | G48C G71A | -1.65
20 | G48U A83U C85U | -0.796
21 | G48U C79U G135C | -1.81

Row | Variant | polymerase ribozyme fitness (log ratio)
22 | C49A C62G | -2.22
23 | G48U U78C U92A A105U A121U | -5.76
24 | C49A G77C C88A | -1.31
25 | G48C C104U | -0.793
26 | C49G C72G G120C | -0.782
27 | C49A G128C | -3.42
28 | C49A G69A G77A G122A | -4.61
29 | C49G C62U | -0.813
30 | C49A G57U G127U | -1.6
31 | C49G C123U | 0.717
32 | C49A C64U A66C C80A G117A | -7.53
33 | C49G G65U | -4.97
34 | C49A C53A C70U C86A U112G G128A | -5.42
35 | G48U C56U C70U A84G A91U | -4.84
36 | C49G G60U G110A | -1.76
37 | C49A U133A | -0.928
38 | C49G G51U U54G | -2.34
39 | C49G C89G | -2.16
40 | C49G A74C G113A | -2.39
41 | C49A C56U G110C | -5.23
42 | G48U G71A C123A U126A | -2.04

Row | Variant | polymerase ribozyme fitness (log ratio)
43 | C49A G51U G52U A90G A119U | -2.42
44 | C49A A50C C56A C79A U132A | -3.18
45 | G48U G61A C89A A119U | -2.48
46 | C49G G63U U130G | -2.28
47 | C49G C53A C64U | -0.365
48 | G48U C86A C115U G120C | -2.47
49 | C49A C62U A66G | -1.75
50 | C49A C102G C114U C115G | -6.27
51 | C49A A90C A103U C114A | -7.25
52 | G48U G69A | -3.02
53 | G48U G69U | -0.529
54 | G48U C72G C86A U125G G127C | -4.47
55 | C49A U92G | -3.98
56 | C49A U92C | -1.43
57 | C49A G122A | -0.428
58 | C49A C70U | -1.18
59 | C49G C70U | -1.3
60 | G48U C73G A95G | -1.55
61 | G48U A95U A105U U125A | -4.37
62 | C49A G52U A105U | -3.88
63 | C49G G58C | -3.36

Row | Variant | polymerase ribozyme fitness (log ratio)
64 | C49G C79U U96G | -0.996
65 | G48U G63A C79G | -6.13
66 | C49A U81A U87G | -0.13
67 | C49A U116G | -2.39
68 | G48U C101U | -1.59
69 | G48U U55G G69A | -2.77
70 | C49A C53G C73U A74G A100U | -2.75
71 | C49G A95U A111G | -0.422
72 | C49A U55G A74C U81G A90G G117U | -2.62
73 | G48U C88U | -1.36
74 | G48U C88A | -0.373
75 | G48U C53U G93C | -1.66
76 | G48U G52U C98U G117U | -6.54
77 | G48C G61C | -2.06
78 | C49A C64U | -0.082
79 | G48U C79G | -3.52
80 | G48U C88G U96A | -3.43
81 | G48U C89A U130A | -2.33
82 | G48U U112C A118U | 0.638
83 | G48U G61U U112C | 1.56
